Among the targets are CXCL8_HUMAN (human, UniProt P10145 28-99); CXCL1_HUMAN (human, UniProt P09341 35-107); CXCL2; CXCL3_HUMAN (human, UniProt P19876 35-107); CXCL13; CXCL6; CXCL5; CXCL4; CXCL10_HUMAN (human, UniProt P02778 22-98).
Common to all, as to test: BLI
On the technique in general: BLI is a label-free optical method that tracks binding on a fibre tip over time.

The next experiment addresses T1, CXCL11_HUMAN (human, UniProt O14625 22-94).
T1 chain: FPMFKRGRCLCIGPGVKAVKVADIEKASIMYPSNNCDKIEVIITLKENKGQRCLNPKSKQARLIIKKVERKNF

For 24 molecules, Kd results are on record in patent US20200247855A1 (published 2020).

Positions count from the first letter of the chain named.

Sequence of CXCL8_HUMAN (P10145 28-99): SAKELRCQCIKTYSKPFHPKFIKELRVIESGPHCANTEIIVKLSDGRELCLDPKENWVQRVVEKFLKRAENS
Sequence of CXCL10_HUMAN (P02778 22-98): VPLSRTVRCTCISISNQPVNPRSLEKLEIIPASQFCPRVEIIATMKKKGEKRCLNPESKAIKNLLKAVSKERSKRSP
Sequence of CXCL1_HUMAN (P09341 35-107): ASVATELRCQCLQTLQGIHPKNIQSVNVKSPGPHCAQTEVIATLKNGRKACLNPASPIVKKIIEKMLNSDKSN
Sequence of CXCL3_HUMAN (P19876 35-107): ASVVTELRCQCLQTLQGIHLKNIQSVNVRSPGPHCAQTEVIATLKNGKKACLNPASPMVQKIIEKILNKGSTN

B1: P1166_IXORI (other)
chain: GPETKEDKKSDVYELFTVEYCGTNCTLLTNGRWTACTGKKGTCRCYHESGEKVGLCLSTEYTDFSEYPNPKSSEIDAAAPLPRETH
Turning to B1, the values for the Kd in the experiment with CXCL8_HUMAN, with CXCL1_HUMAN and in the experiment with CXCL2 were 129 nM, 12.9 nM and 149 nM, respectively.

B2: EVA3_RHISA (protein)
chain: LVSTIESRTSGDGADNFDVVSCNKNCTSGQNECPEGCFCGLLGQNKKGHCYKIIGNLSGEPPVVRR
Consider B2, for which the Kd (usually the equilibrium constant for the complex coming apart) with CXCL8_HUMAN was determined as 2.57 nM; in the experiment with CXCL3_HUMAN it was 7.37 nM; with CXCL1_HUMAN it was 5.73 nM.

B3: P1229_IXORI (other)
chain: DDEFFTVDYCGMNCTLQQDGSWTPCTQKNAECKCYHESGSSVGLCLSTAYTDFNQFGDPNNSDLDAATPRHPDASSR
For the molecule B3, the dissociation constant (Kd) in the experiment with CXCL8_HUMAN came to 30.7 nM; in the experiment with CXCL1_HUMAN, 13.4 nM.

B4: P1170_IXORI (other)
chain: LGDEDQLFSVEYCGTNCTQQDDGKWTPCSGKNGKCKCYHEDGKRYGLCLYTEYTDFSQYPNPEGSEIENTRPRP
In the case of B4, the dissociation constant Kd in the experiment with CXCL8_HUMAN was found to be 12.3 nM; with CXCL1_HUMAN, 59.6 nM.

B5: P1168_IXORI (other)
chain: GQDTDGKEKSDEYELFTVEYCGTNCTQLENGSWTACTGKNGTCRCFHENDKKVGLCLSTEYTDFSEYPDPNSEEIKAASPLP
Consider B5, for which the Kd with CXCL8_HUMAN worked out at 20.7 nM; with CXCL1_HUMAN, 5.91 nM; with CXCL2, 29.9 nM.

B6: P1124_IXORI (other)
chain: DSKGTSDSQDSTKSIKVDFCETNCTKTDGGWTGCTGDCICVSVGDSIEGRCMDFG
Regarding B6, the Kd came out at 8.84 nM with CXCL3_HUMAN; 7.61 nM with CXCL1_HUMAN; 256 nM with CXCL13; 231 nM with CXCL6; 13.8 nM with CXCL2; 26.4 nM with CXCL5.

B7: P1095_IXORI (other)
chain: HSPVAGSEVQKLTSDPNDDIDVSYCGMNCTVVNGKSDECSENCKCLHEGDDPKGICVAITYFGDWGDPNDDPKINEATPQTQIFEKKRK
Consider B7, for which, in the experiment with CXCL8_HUMAN, the Kd was 110 nM.

B8: P1074_IXORI (other)
chain: GSKESSAHQSSDDSIKAEFCDAKCTMKTDGKWTQCHGGCFCVHVGNETEGRCMRLDGDYDYPSTQPEE
As for B8, the Kd with CXCL3_HUMAN was 24 nM; with CXCL1_HUMAN it was 27.8 nM; with CXCL13 it was 95.8 nM; with CXCL5, 42.7 nM; in the experiment with CXCL4 it was 157 nM; with CXCL10_HUMAN, 40.7 nM. The Kd in the experiment with CXCL11_HUMAN is 12 nM.

B9: P1090_IXORI (other)
chain: GSKELSGPESSENSIEAAFCDTNCTEGTDGVWSGCSAGCFCVHVGNSTVGRCMTFNGVDGG
B9: the Kd with CXCL3_HUMAN worked out at 7.67 nM; with CXCL1_HUMAN, 3.55 nM; with CXCL13, 12.5 nM; in the experiment with CXCL6, 2.82 nM; with CXCL2, 3.03 nM; with CXCL5 it was 43 nM. Also, the results for the dissociation constant Kd with CXCL10_HUMAN and in the experiment with CXCL11_HUMAN were 23.9 nM and 3.85 nM, respectively.

B10: P1174_IXORI (other)
chain: LNNENELFSVEYCGANCTQQDNGSWTKCKGNCTCYHEDGKRYGLCLSTEYTDFTQFPKPTSEEIADASPRPKETNSH
With B10, the Kd in the experiment with CXCL8_HUMAN was found to be 81.7 nM; in the experiment with CXCL1_HUMAN, 15.4 nM.

B11: P1077_IXORI (other)
chain: GSKQLIGPQSSTNSIKAEFCDTNCTAGTNGIWNGCSGDCFCTHVGNSTEGRCMKITGFDEYPTSEAEE
As to B11, the Kd is 16 nM in the experiment with CXCL3_HUMAN; 7.53 nM in the experiment with CXCL1_HUMAN; 29.3 nM in the experiment with CXCL6; 264 nM with CXCL2; 55.7 nM with CXCL5; 538 nM in the experiment with CXCL11_HUMAN.

B12: P1132_IXORI (other)
chain: LSDEDELFSVEYCGTNCTKQDTGSWTTCSGNCTCYHEDGKKVGLCLSTEYTDFTKFPKPTSEEIANARPLPKREKTLN
In the case of B12, the equilibrium dissociation constant (Kd) in the experiment with CXCL8_HUMAN turned out to be 32.8 nM; with CXCL1_HUMAN, 11.9 nM; with CXCL2, 18.6 nM; in the experiment with CXCL5 it was 152 nM.

B13: P1128_IXORI (other)
chain: KDDEHFSVDYCGMNCTQQEDGSWTACSGRNEECRCYHESGKKNGLCLSTTYIDFSQYGNPSDSDIAAASPRP
On to B13, for which the Kd came out at 2.3 nM in the experiment with CXCL8_HUMAN; 38.5 nM with CXCL3_HUMAN; 0.722 nM with CXCL1_HUMAN; 5.57 nM with CXCL2; 62.2 nM with CXCL5.

B14: P1078_IXORI (other)
chain: GSKGSSAQQSSHDSIKAEFCETNCTMKTGGKWTQCHGGCFCVHVGNETVGRCIKLDGDYDYPSSKHEE
With B14, the Kd with CXCL3_HUMAN came to 43.8 nM; with CXCL1_HUMAN it was 6.35 nM; in the experiment with CXCL13, 255 nM; with CXCL6 it was 9.24 nM; with CXCL2, 68.3 nM; with CXCL5 it was 39.2 nM. This molecule returned a dissociation constant (Kd) in the experiment with CXCL11_HUMAN of 16.7 nM.

B15: P1100_IXORI (other)
chain: GSKGSSASQSSDNSVVAKFCDTNCTINEGGKWTECKGGCFCVHVGNETVGRCMKLDGDYDYPSPKPEE
Consider B15, for which the dissociation constant Kd with CXCL3_HUMAN turned out to be 55.9 nM; with CXCL1_HUMAN it was 49.9 nM; in the experiment with CXCL13 it was 714 nM; in the experiment with CXCL6, 15.2 nM; in the experiment with CXCL2, 185 nM; in the experiment with CXCL5, 50.8 nM. For the same molecule, the Kd turned out to be 380 nM with CXCL10_HUMAN and 102 nM with CXCL11_HUMAN.

B16: P1096_IXORI (other)
chain: HTTVTGSVEGKPNNPNEDIEVSYCRMNCTVENGVSSACSGDCVCVHRDNEPNGICVEITYFGDFGDPSQDPSIDEAAPRESVSKRRSNGES
The molecule B16 returned a Kd with CXCL8_HUMAN of 44.7 nM.

B17: P1134_IXORI (other)
chain: NEEVFTVEYCGMNCTQKSDGTWTECSGKNKDCRCYHESDAREGLCLSTEYTDFSQFETPSNSDLEAATPRPRKTLYPVRNPHGPKTRGLGYDKRILRDRVKFLI
Turning to B17, binding with CXCL1_HUMAN was put at a Kd of 27.3 nM.

B18: P1127_IXORI (other)
chain: AGKDDEHFSVDYCGMNCTQQEDGSWTACSGRNGECRCYHESGKRSGLCLSTTYIDFSEYGNLSDSDIAAASPRLSMKESH
Consider B18, for which the dissociation constant Kd with CXCL8_HUMAN was 13.3 nM; with CXCL3_HUMAN it was 68.8 nM; in the experiment with CXCL1_HUMAN, 1.42 nM; with CXCL2, 27.8 nM; with CXCL5, 26.6 nM.

B19: P458_IXORI (other)
chain: GSKQPGAAGSSSDSVEAVFCPTNCTKGTNGAWSGCSDDCICVHVGENTEGSCMKFSGDYDYPTPEA
For the molecule B19, the equilibrium dissociation constant (Kd) was found to be 7.83 nM with CXCL3_HUMAN; 16.6 nM with CXCL1_HUMAN; 13.8 nM with CXCL13; 4.97 nM in the experiment with CXCL6; 4.55 nM in the experiment with CXCL2; 19.1 nM in the experiment with CXCL5.

B20: P942_IXORI (other)
chain: NQLSGPQSSANSNEAVFCDTNCTQGTDEAWSGCRGDCFCVYVGNSTEGRCMMLSGDFDYSTPGAED
For the molecule B20, the Kd with CXCL3_HUMAN was 5.04 nM; in the experiment with CXCL1_HUMAN it was 3.09 nM; with CXCL13, 39.5 nM; with CXCL6, 7.28 nM; with CXCL2, 6.48 nM; with CXCL5 it was 21.1 nM. Further, the Kd stood at 148 nM with CXCL4, 133 nM with CXCL10_HUMAN and 12.4 nM in the experiment with CXCL11_HUMAN.

B21: P1162_IXORI (other)
chain: LNDEELFTVDYCGTNCTQQPNGSWTTCPGNCSCYHEDGKTDGFCLSTEYTDFTQFPNLTSEEMDAATPRPE
B21: the Kd stood at 12.2 nM in the experiment with CXCL8_HUMAN; 60.1 nM with CXCL3_HUMAN; 2.66 nM with CXCL1_HUMAN; 14.4 nM in the experiment with CXCL2; 32.1 nM with CXCL5.

B22: P1172_IXORI (other)
chain: B21 chain with N2H, D3E, E4D, L6I, Q18K, P20S
On to B22, for which the Kd in the experiment with CXCL8_HUMAN is 26.7 nM; with CXCL1_HUMAN, 5.59 nM; with CXCL2, 26 nM; with CXCL5, 59.3 nM.

B23: P1104_IXORI (other)
chain: ESKEASASQGPGKSFKVEFCETNCTENNGVWSGCTGDCICVSVGDSKEGRCMDLGDKVIDTPVAQG
In the case of B23, the Kd in the experiment with CXCL3_HUMAN was 43.7 nM; with CXCL1_HUMAN it was 14.4 nM; in the experiment with CXCL13 it was 220 nM; with CXCL6, 34.3 nM; with CXCL2, 82.3 nM; with CXCL5 it was 245 nM.

B24: P1086_IXORI (other)
chain: GSKGQRASQVSETSITAEFCDTSCTQGTDKTWSGCSGDCFCVHVGNDTEGRCMRWDGDYPSAEEEE
For B24, the dissociation constant (Kd) came out at 15.2 nM with CXCL3_HUMAN; 11.4 nM with CXCL1_HUMAN; 22.7 nM in the experiment with CXCL13; 10.7 nM with CXCL6; 34 nM with CXCL2; 26 nM in the experiment with CXCL5. In addition, in the experiment with CXCL10_HUMAN, the equilibrium dissociation constant (Kd) stood at 18.7 nM.
